Results taken from US20210079083A1 (INSTITUTE FOR BASIC SCIENCE, published 2021).

T1: Human Angiopoietin-2 full-length (hAng2) (human, UniProt O15123 19-496)
T1 construct: The cell assays used full-length hAng2 from R&D Systems; also called human Ang2; A2
T1 sequence: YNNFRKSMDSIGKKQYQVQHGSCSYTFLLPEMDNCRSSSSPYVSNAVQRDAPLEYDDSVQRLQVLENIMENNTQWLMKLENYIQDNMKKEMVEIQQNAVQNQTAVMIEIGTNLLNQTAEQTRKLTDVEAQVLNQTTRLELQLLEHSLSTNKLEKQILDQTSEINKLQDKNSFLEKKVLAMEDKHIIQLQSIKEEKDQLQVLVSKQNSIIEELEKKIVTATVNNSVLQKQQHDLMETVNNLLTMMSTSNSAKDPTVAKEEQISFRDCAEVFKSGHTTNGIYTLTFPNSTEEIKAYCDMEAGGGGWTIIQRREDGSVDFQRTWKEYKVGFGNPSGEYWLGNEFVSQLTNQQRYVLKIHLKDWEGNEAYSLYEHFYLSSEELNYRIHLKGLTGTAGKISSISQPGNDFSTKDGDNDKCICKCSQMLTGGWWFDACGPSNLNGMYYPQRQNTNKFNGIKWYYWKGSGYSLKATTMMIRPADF


Molecular target: T1, Human Angiopoietin-2 full-length (hAng2)
Assay: BLI (Octet), antibody fixed on AR2G sensor, hAng2 3.125-50 nM in solution, 1:1 global fit
Method: The affinity of humanized anti-Ang2 antibody against hAng2 was measured using Octet system (ForteBio). Specifically, buffer and samples were measured in total 200 μl/well using Black 96-well plates (96 well F-type black plates, Greiner). […] After the hydration, humanized anti-Ang2 antibody was diluted in 10 mM sodium acetate, pH 6.0 buffer at a concentration of 10 μg/ml, fixed on AR2G biosensor, and blocked with 1M ethanolamine. The recombinant hAng2 was diluted to 50, 25, 12.5, 6.25, 3.125, and 0 nM with 1× kinetic buffer, and subjected to association for 300 sec and dissociation for 900 sec.
The affinities of humanized 2C8 antibodies to hAng2 were in Table 15.

Row | Binder | Kd [nM] | koff [s⁻¹] | kon [M⁻¹ s⁻¹]
1 | humanized anti-Ang2 antibody 2C8H32 (antibody, V domains shown, Full-length human IgG1) VH: QVQLVQSGAEVKKPGASVKVSCKASGYSFTSYWMHWVRQAPGQGLEWIGMIDPSDSETRLNQKFKDKASMTRDTSTSTVYMELSSLRSEDTAVYYCARRFYYGSDWYFDVWGQGTLVTVSS VL: DIQLTQSPSFLSASVGDRVSITCKASQDVGTAVAWYQQKPGKAPKLLIYWASTRHTGVPDRFSGSGSGTEFTLTISSLQPEDFATYYCQQYSSYPLTFGQGTKVEIK | 0.197 | 1.49e-05 | 75700
2 | humanized anti-Ang2 antibody 2C8H41 (antibody, V domains shown, Full-length human IgG1) VH: QVQLVQSGAEVKKPGASVKVSCKASGYSFTSYWMHWVKQAPGQGLEWIGMIDPSDSETRLNQKFKDKASMTRDTSTSTVYMELSSLRSEDTAVYYCARRFYYGSDWYFDVWGQGTLVTVSS VL: DIQLTQSPSFLSASVGDRVTITCKASQDVGTAVAWYQQKPGKAPKLLIYWASTRHTGVPSRFSGSGSGTEFTLTISSLQPEDFATYYCQQYSSYPLTFGQGTKVEIK | 0.249 | 1.67e-05 | 67000
3 | humanized anti-Ang2 antibody 2C8H23 (antibody, V domains shown, Full-length human IgG1) VH: QVQLVQSGAEVKKPGASVKVSCKASGYSFTSYWMHWVRQAPGQGLEWIGMIDPSDSETRLNQKFKDRVTMTRDTSTSTVYMELSSLRSEDTAVYYCARRFYYGSDWYFDVWGQGTLVTVSS VL: DIQLTQSPSFLSASVGDRVSITCKASQDVGTAVAWYQQKPGKAPKLLIYWASTRHTGVPDRFSGSGSGTEFTLTISSLQPEDFADYFCQQYSSYPLTFGQGTKVEIK | 0.287 | 2.28e-05 | 79500
4 | humanized anti-Ang2 antibody 2C8H43 (antibody, V domains shown, Full-length human IgG1) VH: QVQLVQSGAEVKKPGASVKVSCKASGYSFTSYWMHWVKQAPGQGLEWIGMIDPSDSETRLNQKFKDKASMTRDTSTSTVYMELSSLRSEDTAVYYCARRFYYGSDWYFDVWGQGTLVTVSS VL: DIQLTQSPSFLSASVGDRVSITCKASQDVGTAVAWYQQKPGKAPKLLIYWASTRHTGVPDRFSGSGSGTEFTLTISSLQPEDFADYFCQQYSSYPLTFGQGTKVEIK | 0.373 | 2.65e-05 | 71100
5 | humanized anti-Ang2 antibody 2C8H52 (antibody, V domains shown, Full-length human IgG1) VH: QVQLVQSGAEVKKPGASVKVSCKASGYSFTSYWMHWVKQAPGQGLEWIGMIDPSDSETRLNQKFKDKASLTVDTSTSTVYMELSSLRSEDTAVYYCARRFYYGSDWYFDVWGQGTLVTVSS VL: DIQLTQSPSFLSASVGDRVSITCKASQDVGTAVAWYQQKPGKAPKLLIYWASTRHTGVPDRFSGSGSGTEFTLTISSLQPEDFATYYCQQYSSYPLTFGQGTKVEIK | 0.243 | 1.99e-05 | 81900
6 | humanized anti-Ang2 antibody 2C8H51 (antibody, V domains shown, Full-length human IgG1) VH: QVQLVQSGAEVKKPGASVKVSCKASGYSFTSYWMHWVKQAPGQGLEWIGMIDPSDSETRLNQKFKDKASLTVDTSTSTVYMELSSLRSEDTAVYYCARRFYYGSDWYFDVWGQGTLVTVSS VL: DIQLTQSPSFLSASVGDRVTITCKASQDVGTAVAWYQQKPGKAPKLLIYWASTRHTGVPSRFSGSGSGTEFTLTISSLQPEDFATYYCQQYSSYPLTFGQGTKVEIK | 0.137 | 9.61e-06 | 70200
7 | humanized anti-Ang2 antibody 2C8H12 (antibody, V domains shown, Full-length human IgG1) VH: QVQLVQSGAEVKKPGASVKVSCKASGYTFTSYWMHWVRQAPGQGLEWMGMIDPSDSETRLNQKFKDRVTMTRDTSTSTVYMELSSLRSEDTAVYYCARRFYYGSDWYFDVWGQGTLVTVSS VL: DIQLTQSPSFLSASVGDRVSITCKASQDVGTAVAWYQQKPGKAPKLLIYWASTRHTGVPDRFSGSGSGTEFTLTISSLQPEDFATYYCQQYSSYPLTFGQGTKVEIK | 0.139 | 1.33e-05 | 95200
8 | humanized anti-Ang2 antibody 2C8H42 (antibody, V domains shown, Full-length human IgG1) VH: QVQLVQSGAEVKKPGASVKVSCKASGYSFTSYWMHWVKQAPGQGLEWIGMIDPSDSETRLNQKFKDKASMTRDTSTSTVYMELSSLRSEDTAVYYCARRFYYGSDWYFDVWGQGTLVTVSS VL: DIQLTQSPSFLSASVGDRVSITCKASQDVGTAVAWYQQKPGKAPKLLIYWASTRHTGVPDRFSGSGSGTEFTLTISSLQPEDFATYYCQQYSSYPLTFGQGTKVEIK | 0.381 | 3.07e-05 | 80600
9 | humanized anti-Ang2 antibody 2C8H31 (antibody, V domains shown, Full-length human IgG1) VH: QVQLVQSGAEVKKPGASVKVSCKASGYSFTSYWMHWVRQAPGQGLEWIGMIDPSDSETRLNQKFKDKASMTRDTSTSTVYMELSSLRSEDTAVYYCARRFYYGSDWYFDVWGQGTLVTVSS VL: DIQLTQSPSFLSASVGDRVTITCKASQDVGTAVAWYQQKPGKAPKLLIYWASTRHTGVPSRFSGSGSGTEFTLTISSLQPEDFATYYCQQYSSYPLTFGQGTKVEIK | 0.266 | 2.21e-05 | 83200
10 | humanized anti-Ang2 antibody 2C8H13 (antibody, V domains shown, Full-length human IgG1) VH: QVQLVQSGAEVKKPGASVKVSCKASGYTFTSYWMHWVRQAPGQGLEWMGMIDPSDSETRLNQKFKDRVTMTRDTSTSTVYMELSSLRSEDTAVYYCARRFYYGSDWYFDVWGQGTLVTVSS VL: DIQLTQSPSFLSASVGDRVSITCKASQDVGTAVAWYQQKPGKAPKLLIYWASTRHTGVPDRFSGSGSGTEFTLTISSLQPEDFADYFCQQYSSYPLTFGQGTKVEIK | 0.246 | 2.77e-05 | 113000
11 | humanized anti-Ang2 antibody 2C8H53 (antibody, V domains shown, Full-length human IgG1) VH: QVQLVQSGAEVKKPGASVKVSCKASGYSFTSYWMHWVKQAPGQGLEWIGMIDPSDSETRLNQKFKDKASLTVDTSTSTVYMELSSLRSEDTAVYYCARRFYYGSDWYFDVWGQGTLVTVSS VL: DIQLTQSPSFLSASVGDRVSITCKASQDVGTAVAWYQQKPGKAPKLLIYWASTRHTGVPDRFSGSGSGTEFTLTISSLQPEDFADYFCQQYSSYPLTFGQGTKVEIK | 0.384 | 3.11e-05 | 80900

Further binders by falling Kd, results first:

Row | Kd [nM] | koff [s⁻¹] | kon [M⁻¹ s⁻¹] | Binder
12 | 0.135 | 1.5e-05 | 111000 | humanized anti-Ang2 antibody 2C8H21 (antibody, V domains shown, Full-length human IgG1) VH: QVQLVQSGAEVKKPGASVKVSCKASGYSFTSYWMHWVRQAPGQGLEWIGMIDPSDSETRLNQKFKDRVTMTRDTSTSTVYMELSSLRSEDTAVYYCARRFYYGSDWYFDVWGQGTLVTVSS VL: DIQLTQSPSFLSASVGDRVTITCKASQDVGTAVAWYQQKPGKAPKLLIYWASTRHTGVPSRFSGSGSGTEFTLTISSLQPEDFATYYCQQYSSYPLTFGQGTKVEIK
13 | 0.121 | 8.94e-06 | 73700 | humanized anti-Ang2 antibody 4B9H21 (antibody, V domains shown, Full-length human IgG1) VH: QVQLVESGGGLVKPGGSLRLSCAASGFTFSDYYMYWVRQAPGKGLEWVSTISVGGSFTYYPDSVKGRFTISRDNAKNSLYLQMNSLRAEDTAVYYCARDWGLRPWFVYWGQGTLVTVSS VL: DIQMTQSPSSLSASVGDRVTITCKASQDVSTAVAWYQQKPGKAPKLLIYWASTRHTGVPSRFSGSGSGTDFTLTISSLQPEDFATYYCQQHYSTPPTFGQGTKVEIK
14 | 0.115 | 6.84e-06 | 59600 | humanized anti-Ang2 antibody 2C8H22 (antibody, V domains shown, Full-length human IgG1) VH: QVQLVQSGAEVKKPGASVKVSCKASGYSFTSYWMHWVRQAPGQGLEWIGMIDPSDSETRLNQKFKDRVTMTRDTSTSTVYMELSSLRSEDTAVYYCARRFYYGSDWYFDVWGQGTLVTVSS VL: DIQLTQSPSFLSASVGDRVSITCKASQDVGTAVAWYQQKPGKAPKLLIYWASTRHTGVPDRFSGSGSGTEFTLTISSLQPEDFATYYCQQYSSYPLTFGQGTKVEIK
15 | 0.08 | 3.46e-05 | 432000 | 4B9H11G4 (human IgG4 class antibody of 4B9H11) (antibody, V domains shown, The heavy chain constant region was replaced by an IgG4 class constant region; The sentence prints '4B9 heavy chain gene' where 4B9H11 is meant; also called 4B9H11-IgG4) VH: QVQLVESGGGLVKPGGSLRLSCAASGFTFSDYYMYWIRQAPGKGLEWVSTISVGGSFTYYPDSVKGRFTISRDNAKNSLYLQMNSLRAEDTAVYYCARDWGLRPWFVYWGQGTLVTVSS VL: DIQMTQSPSSLSASVGDRVTITCKASQDVSTAVAWYQQKPGKAPKLLIYWASTRHTGVPSRFSGSGSGTDFTLTISSLQPEDFATYYCQQHYSTPPTFGQGTKVEIK
16 | 0.0445 | 3.99e-06 | 89600 | humanized anti-Ang2 antibody 2C8H33 (antibody, V domains shown, Full-length human IgG1) VH: QVQLVQSGAEVKKPGASVKVSCKASGYSFTSYWMHWVRQAPGQGLEWIGMIDPSDSETRLNQKFKDKASMTRDTSTSTVYMELSSLRSEDTAVYYCARRFYYGSDWYFDVWGQGTLVTVSS VL: DIQLTQSPSFLSASVGDRVSITCKASQDVGTAVAWYQQKPGKAPKLLIYWASTRHTGVPDRFSGSGSGTEFTLTISSLQPEDFADYFCQQYSSYPLTFGQGTKVEIK
17 | 0.0105 | 4.35e-06 | 415000 | 2C8H11G4 (human IgG4 class antibody of 2C8H11) (antibody, V domains shown, The heavy chain constant region (CH1-hinge-CH2-CH3) was replaced by an IgG4 class constant region; also called 2C8H11-IgG4) VH: QVQLVQSGAEVKKPGASVKVSCKASGYTFTSYWMHWVRQAPGQGLEWMGMIDPSDSETRLNQKFKDRVTMTRDTSTSTVYMELSSLRSEDTAVYYCARRFYYGSDWYFDVWGQGTLVTVSS VL: DIQLTQSPSFLSASVGDRVTITCKASQDVGTAVAWYQQKPGKAPKLLIYWASTRHTGVPSRFSGSGSGTEFTLTISSLQPEDFATYYCQQYSSYPLTFGQGTKVEIK
